From publication PMC10164577
Read-outs that look alike come from different tables or passages of the source. Blank lines part the entries; values can stand above or below the substance they belong to.

Assays:
[1] = molecular target: PCNA (Saccharomyces cerevisiae) (UniProt P15873); conditions: cited from earlier work
[2] = molecular target: PCNA K164C, labeled with Alexa Fluor 546 (yeast) (UniProt P15873); experiment: cross-linking; limiting PCNA: 50 nM AF546-PCNA K164C loaded on nicked pUC19 (15 nM) by full-length RFC (15 nM), CAF-1 titrated 0-1 μM, 100-110 mM NaCl; 0.2% glutaraldehyde; nuclease digestion; SDS-PAGE, PCNA fluorescence, band intensities; affinities estimated
[3] = molecular target: Histones H3–H4 (H3 C110A-H4 E63C), Alexa488-labeled (Xenopus laevis); experiment: fluorescence polarisation; 10 nM Alexa488-labeled H3–H4 with increasing CAF-1, Polϵ, Polδ or RPA; 25 mM TRIS pH 7.5, 300 mM NaCl, 5% glycerol, 1 mM EDTA, 0.01% IGEPAL, 0.01% CHAPS, 1 mM DTT; one site binding curve
[4] = molecular target: Proliferating Cell Nuclear Antigen (PCNA), wild type (yeast) (UniProt P15873)
[5] = molecular target: PCNA (Saccharomyces cerevisiae) (UniProt P15873); conditions: cited from earlier work; remark: listed apart in the source

Substance: DNA polymerase delta (from UniProt P15436)
Kd [1]: 13.7 nM

Kd [2]: < 50 nM
Substance: CAF-1_ΔAD mutant (acidic domain deleted) (from UniProt Q12495 1-606; Q04199 1-468; P13712 1-422) (complex)

Kd [3]: 1.1 nM
Substance: Chromatin Assembly Factor-1 (CAF-1), wild type (from UniProt Q12495 1-606; Q04199 1-468; P13712 1-422) (complex)

maximum leading-strand replication rate in pulse-chase with the yeast replisome (+RFC/PCNA, Polδ omitted) with 180 nM CAF-1 added; ∼1.09 kb/min without CAF-1 [4]: 0.85 kb/min
Kd [3]: 28 nM
Substance: DNA polymerase epsilon (Polϵ) (complex)

Substance: DNA polymerase epsilon (from UniProt P21951)
Kd [5]: 326 nM
